Holding throughout (experiment): EMSA
What all share (settings): tags: MBP fusion

The target of one series is T1, ZFP SBS#1222 (synthetic, UniProt P08047).
T1 chain: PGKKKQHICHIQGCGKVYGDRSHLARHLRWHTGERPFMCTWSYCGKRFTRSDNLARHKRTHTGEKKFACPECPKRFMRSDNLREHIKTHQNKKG
A digest of the protocol:
(§1)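 Purified ZFP was titrated against labeled double-stranded target (1 nM or lower, at least 10-fold below expected Kd) carrying the natural binding site with flanks. Binding buffer was 10 mM Tris pH 7.5, 100 mM KCl, 1 mM MgCl2, 0.1 mM ZnCl2, 5 mM DTT, 10% glycerol, 0.02% BSA, with equilibration for at least 45 min. Bound and free target were separated on a 10% polyacrylamide gel.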

Another series concerns the target T2, ZFP SBS#1202 (synthetic, UniProt P08047).
T2 chain: T1 chain with H23N, A25R, R26T, A55T, N81A
A digest of the protocol:
as §1

The next series deals with T3, ZFP SBS#1108 (synthetic).
T3 chain: T1 chain with D20Q, R21S, S22G, R50T, D52G, N53E, A55V
A digest of the protocol: as §1

In another series the target is T4, ZFP SBS#1207 (synthetic).
T4 chain: T1 chain with D20Q, S22A, A25E, R50T, D52G, N53E, A55V
A digest of the protocol: as §1

The target of another series is T5, ZFP SBS#1213 (synthetic).
T5 chain: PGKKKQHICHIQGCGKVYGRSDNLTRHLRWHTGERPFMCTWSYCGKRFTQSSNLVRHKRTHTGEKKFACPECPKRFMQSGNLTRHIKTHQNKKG
A digest of the protocol:
as §1

The target of another series is ZFP SBS#1206 (synthetic). A digest of the protocol:
as §1

The target of a further series is ZFP SBS#1107 (synthetic). A digest of the protocol: as §1
A further series has as its target ZFP SBS#1218 (synthetic). A digest of the protocol: as §1
The next series addresses ZFP SBS#1217 (synthetic). A digest of the protocol:
as §1

The next series concerns the target ZFP SBS#1150 (synthetic). A digest of the protocol: as §1
The target of a further series is ZFP SBS#498 (synthetic, UniProt P08047). A digest of the protocol: as §1
Chain of ZFP SBS#498 (P08047 other isoform, or with tags, fused parts or gaps): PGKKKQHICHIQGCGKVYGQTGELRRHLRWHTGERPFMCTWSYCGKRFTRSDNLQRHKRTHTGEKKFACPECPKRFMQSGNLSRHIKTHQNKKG
Another series deals with T6, ZFP SBS#1101 (synthetic).
T6 chain: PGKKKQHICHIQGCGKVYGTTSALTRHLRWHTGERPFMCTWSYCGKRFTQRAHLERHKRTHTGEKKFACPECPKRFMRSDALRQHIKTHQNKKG
A digest of the protocol:
as §1

Another series deals with T7, ZFP SBS#1214 (synthetic).
T7 chain: T6 chain with R83T
A digest of the protocol: as §1

Another series deals with T8, ZFP SBS#1197 (synthetic).
T8 chain: T5 chain with R20E, S21R, D22G, N23D, Q50M, S52H, N53H, V55S
A digest of the protocol: as §1

The target in the next series is ZFP SBS#1179 (synthetic). A digest of the protocol: as §1
Chain of ZFP SBS#1179 (synthetic) (chain, as listed by the source): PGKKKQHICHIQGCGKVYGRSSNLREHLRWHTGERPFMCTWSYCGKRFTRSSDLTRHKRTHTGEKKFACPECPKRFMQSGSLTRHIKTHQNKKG
The target in a further series is ZFP SBS#1117 (synthetic). A digest of the protocol: as §1
Chain of ZFP SBS#1117 (synthetic) (chain, as listed by the source): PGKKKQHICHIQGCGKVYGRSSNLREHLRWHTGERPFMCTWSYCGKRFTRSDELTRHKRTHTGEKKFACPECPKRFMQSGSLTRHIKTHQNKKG
In another series the target is ZFP SBS#1211 (synthetic). A digest of the protocol:
as §1

A further series deals with ZFP SBS#1219 (synthetic). A digest of the protocol: as §1
Chain of ZFP SBS#1219 (synthetic) (chain, as listed by the source): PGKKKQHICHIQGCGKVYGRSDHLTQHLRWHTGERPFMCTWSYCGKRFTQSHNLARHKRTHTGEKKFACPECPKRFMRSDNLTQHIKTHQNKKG
A further series concerns the target ZFP SBS#1221 (synthetic). A digest of the protocol: as §1
In a further series the target is ZFP SBS#1220 (synthetic). A digest of the protocol: as §1
Chain of ZFP SBS#1220 (synthetic) (chain, as listed by the source): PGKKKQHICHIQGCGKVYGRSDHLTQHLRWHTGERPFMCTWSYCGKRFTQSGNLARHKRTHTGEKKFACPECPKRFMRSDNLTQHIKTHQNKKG
The next series concerns the target ZFP SBS#1204 (synthetic). A digest of the protocol: as §1
In a further series the target is ZFP SBS#1203 (synthetic). A digest of the protocol:
as §1

The target of another series is T9, ZFP SBS#1209 (synthetic).
T9 chain: T5 chain with N23E, Q78R, G80D, N81T, T83R, R84E
A digest of the protocol: as §1

The next series deals with T10, ZFP SBS#1116 (synthetic).
T10 chain: T5 chain with N23E, Q78R, G80D, N81E, T83R, R84E
A digest of the protocol:
as §1

The target of another series is T11, ZFP SBS#1199 (synthetic).
T11 chain: T5 chain with L24R, R26A, Q50R, S52D, V55T, Q78R, G80D, N81A, R84Q
A digest of the protocol:
as §1

For the next series, the target named is T12, ZFP SBS#1201 (synthetic).
T12 chain: T5 chain with L24R, R26A, Q50R, S52H, V55T, Q78R, G80D, N81A, R84Q
A digest of the protocol:
as §1

The target of the next series is T13, ZFP SBS#1200 (synthetic).
T13 chain: T5 chain with L24R, R26A, Q50R, V55T, Q78R, G80D, N81A, R84Q
A digest of the protocol: as §1

The target in a further series is ZFP SBS#483 (synthetic). A digest of the protocol:
as §1

Another series addresses ZFP SBS#937 (synthetic). A digest of the protocol:
as §1

In another series the target is ZFP SBS#938 (synthetic, UniProt P08047). A digest of the protocol:
as §1

The target in a further series is ZFP SBS#1215 (synthetic, UniProt P08047). A digest of the protocol: as §1
Chain of ZFP SBS#1215 (P08047 other isoform, or with tags, fused parts or gaps): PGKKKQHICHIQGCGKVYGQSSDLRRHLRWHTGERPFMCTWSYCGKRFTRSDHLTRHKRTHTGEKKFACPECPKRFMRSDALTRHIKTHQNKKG
The target in a further series is T14, ZFP SBS#1194 (synthetic).
T14 chain: T5 chain with N23A, Q50R, S52D, L54R, V55T, R56A, Q78R, G80D
A digest of the protocol:
as §1

For another series, the target named is T15, ZFP SBS#1195 (synthetic).
T15 chain: T5 chain with N23A, Q50R, S52D, L54R, V55T, R56A, Q78R, G80S
A digest of the protocol: as §1

The target of a further series is T16, ZFP SBS#1104 (synthetic).
T16 chain: T1 chain with D20Q, R21S, H23D, A25R, R50Q, D52G, N53S, A55T, N81H
A digest of the protocol:
as §1

A further series concerns the target ZFP SBS#1205 (synthetic). A digest of the protocol: as §1
The target of a further series is T17, ZFP SBS#1127 (synthetic).
T17 chain: T1 chain with D20Q, R21S, H23A, N53H, A55T
A digest of the protocol:
as §1

The next series addresses T18, ZFP SBS#1212 (synthetic, UniProt P08047).
T18 chain: T1 chain with D20T, R21T, H23A, A25T, N53H, A55T
A digest of the protocol: as §1

Substitutions are numbered along the chain they refer to.

Chain of ZFP SBS#1211 (synthetic) (chain, as listed by the source): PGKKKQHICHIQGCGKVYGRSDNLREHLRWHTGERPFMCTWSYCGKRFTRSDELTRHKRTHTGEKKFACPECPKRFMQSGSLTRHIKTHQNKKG
Chain of ZFP SBS#1205 (synthetic) (chain, as listed by the source): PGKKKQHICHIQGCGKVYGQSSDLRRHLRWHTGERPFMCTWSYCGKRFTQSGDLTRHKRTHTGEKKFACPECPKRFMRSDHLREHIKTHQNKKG
Chain of ZFP SBS#1221 (synthetic) (chain, as listed by the source): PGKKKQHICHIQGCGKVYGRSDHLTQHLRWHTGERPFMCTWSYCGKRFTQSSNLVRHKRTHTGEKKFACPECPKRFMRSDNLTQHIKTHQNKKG
Chain of ZFP SBS#1217 (synthetic) (chain, as listed by the source): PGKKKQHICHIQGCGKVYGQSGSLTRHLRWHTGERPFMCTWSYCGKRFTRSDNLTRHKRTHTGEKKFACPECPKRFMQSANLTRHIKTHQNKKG
Chain of ZFP SBS#938 (P08047 other isoform, or with tags, fused parts or gaps): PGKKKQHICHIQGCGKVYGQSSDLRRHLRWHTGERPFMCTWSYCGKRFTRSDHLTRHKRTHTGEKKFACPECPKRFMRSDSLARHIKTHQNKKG
Chain of ZFP SBS#1218 (synthetic) (chain, as listed by the source): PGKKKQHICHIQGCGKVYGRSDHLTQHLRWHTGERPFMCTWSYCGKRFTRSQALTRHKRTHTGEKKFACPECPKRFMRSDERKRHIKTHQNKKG
Chain of ZFP SBS#1206 (synthetic) (chain, as listed by the source): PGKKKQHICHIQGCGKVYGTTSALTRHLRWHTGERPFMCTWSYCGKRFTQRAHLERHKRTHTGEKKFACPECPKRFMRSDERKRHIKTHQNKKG
Chain of ZFP SBS#1150 (synthetic) (chain, as listed by the source): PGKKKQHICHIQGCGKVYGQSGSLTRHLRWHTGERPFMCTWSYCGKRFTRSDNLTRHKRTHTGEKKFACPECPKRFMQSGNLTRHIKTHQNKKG
Chain of ZFP SBS#1204 (synthetic) (chain, as listed by the source): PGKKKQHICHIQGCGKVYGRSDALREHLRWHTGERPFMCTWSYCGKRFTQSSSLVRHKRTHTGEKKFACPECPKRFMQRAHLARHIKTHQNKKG
Chain of ZFP SBS#937 (synthetic) (chain, as listed by the source): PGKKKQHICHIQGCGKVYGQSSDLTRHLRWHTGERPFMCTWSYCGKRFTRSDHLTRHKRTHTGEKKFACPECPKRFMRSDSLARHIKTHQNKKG
Chain of ZFP SBS#483 (synthetic) (chain, as listed by the source): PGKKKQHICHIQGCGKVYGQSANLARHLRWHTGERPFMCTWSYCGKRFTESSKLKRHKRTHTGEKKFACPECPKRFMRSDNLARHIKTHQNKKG

B1: CAGGAGGGC (dsDNA)
DNA 1: CAGGAGGGC
DNA 2: GCCCTCCTG
For the molecule B1, the Kd with ZFP SBS#1222 was found to be 0.155 nM.

B2: CTGGAGTAC (dsDNA)
DNA 1: CTGGAGTAC
DNA 2: GTACTCCAG
B2: binding in the series with ZFP SBS#1202 was characterised by a dissociation constant (Kd) of 2.83 nM.

B3: CAGGCTGGA (dsDNA)
DNA 1: CAGGCTGGA
DNA 2: TCCAGCCTG
In the case of B3, the Kd was 7 pM in the series with ZFP SBS#1108 and 0.45 nM in the series with ZFP SBS#1207.

B4: GAAGAAGAG (dsDNA)
DNA 1: GAAGAAGAG
DNA 2: CTCTTCTTC
B4: the Kd in the series with ZFP SBS#1213 was 12.3 nM.

B5: GCGGGAGTT (dsDNA)
DNA 1: GCGGGAGTT
DNA 2: AACTCCCGC
On to B5, for which the dissociation constant Kd is 0.034 nM in the series with ZFP SBS#1206 and 0.06 nM in the series with ZFP SBS#1107.

B6: GCGGTGAGG (dsDNA)
DNA 1: GCGGTGAGG
DNA 2: CCTCACCGC
Molecule B6 registered a dissociation constant (Kd) with ZFP SBS#1218 of 0.46 nM. This lies in the sub-nanomolar range.

B7: GAAGAGGCA (dsDNA)
DNA 1: GAAGAGGCA
DNA 2: TGCCTCTTC
For the molecule B7, the Kd with ZFP SBS#1217 worked out at 4 pM; in the series with ZFP SBS#1150, 4 pM; with ZFP SBS#498, 30 nM.

B8: ATGGGAGTT (dsDNA)
DNA 1: ATGGGAGTT
DNA 2: AACTCCCAT
On to B8, for which the Kd with ZFP SBS#1101 came out at 0.065 nM; with ZFP SBS#1214 it was 0.46 nM.

B9: GAAGGTGCC (dsDNA)
DNA 1: GAAGGTGCC
DNA 2: GGCACCTTC
In turn, B9 yielded a Kd in the series with ZFP SBS#1197 of 14.8 nM.

B10: GCAGCGCAG (dsDNA)
DNA 1: GCAGCGCAG
DNA 2: CTGCGCTGC
For the molecule B10, the Kd with ZFP SBS#1179 worked out at 2.73 nM; with ZFP SBS#1117 it was 2.85 nM; with ZFP SBS#1211, 6.5 nM.

B11: AAGGAAAGG (dsDNA)
DNA 1: AAGGAAAGG
DNA 2: CCTTTCCTT
In the case of B11, the Kd in the series with ZFP SBS#1219 is 0.68 nM; in the series with ZFP SBS#1221, 1.4 nM; with ZFP SBS#1220, 0.175 nM.

B12: GGAGTACTG (dsDNA)
DNA 1: GGAGTACTG
DNA 2: CAGTACTCC
B12: the Kd with ZFP SBS#1204 was determined as 4.38 nM; with ZFP SBS#1203 it was 2.94 nM.

B13: CCGGAAGCG (dsDNA)
DNA 1: CCGGAAGCG
DNA 2: CGCTTCCGG
On to B13, for which the equilibrium dissociation constant (Kd) with ZFP SBS#1209 turned out to be 19.3 nM; with ZFP SBS#1116, 12.3 nM.

B14: ATGGAGAAG (dsDNA)
DNA 1: ATGGAGAAG
DNA 2: CTTCTCCAT
Consider B14, for which the Kd with ZFP SBS#1199 was 3.43 nM; with ZFP SBS#1201, 14.8 nM; with ZFP SBS#1200, 16.9 nM.

B15: GAGGGCGAAG (dsDNA)
DNA 1: GAGGGCGAAG
DNA 2: CTTCGCCCTC
In the series with ZFP SBS#483, B15 came in with a Kd of 130 nM.

B16: GTGGGGGCT (dsDNA)
DNA 1: GTGGGGGCT
DNA 2: AGCCCCCAC
B16: the Kd turned out to be 0.03 nM in the series with ZFP SBS#937, 0.049 nM with ZFP SBS#938 and 3 pM with ZFP SBS#1215.

B17: GAGAAGGTG (dsDNA)
DNA 1: GAGAAGGTG
DNA 2: CACCTTCTC
For B17, the Kd in the series with ZFP SBS#1194 was 2.19 nM; in the series with ZFP SBS#1195 it was 2.8 nM.

B18: CGGGCAGCT (dsDNA)
DNA 1: CGGGCAGCT
DNA 2: AGCTGCCCG
Consider B18, for which the Kd in the series with ZFP SBS#1104 was 0.08 nM; in the series with ZFP SBS#1205, 0.9 nM.

B19: CAGGGGGTT (dsDNA)
DNA 1: CAGGGGGTT
DNA 2: AACCCCCTG
As for B19, the values for the Kd with ZFP SBS#1127 and with ZFP SBS#1212 were 0.1 nM and 0.05 nM, respectively.

Source of the values: patent publication US20030068675, “Position dependent recognition of GNN nucleotide triplets by zinc fingers” (published 2003).
